How the values were obtained:
[1] = target: T1, human OX40 protein expressed on the surface of cells (human, UniProt P43489 29-277); test: cell-based or functional assay
T1 sequence (looked up): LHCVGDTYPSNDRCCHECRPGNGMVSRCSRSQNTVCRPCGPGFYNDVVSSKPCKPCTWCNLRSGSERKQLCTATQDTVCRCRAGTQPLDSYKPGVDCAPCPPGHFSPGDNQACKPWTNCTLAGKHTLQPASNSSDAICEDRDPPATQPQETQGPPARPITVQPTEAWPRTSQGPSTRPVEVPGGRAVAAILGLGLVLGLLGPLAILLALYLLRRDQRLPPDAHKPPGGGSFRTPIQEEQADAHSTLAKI

[2] = target: T2, biotinylated OX40 recombinant protein (UniProt P43489 29-216, limits assumed, biotinylated (site not stated)); test: ELISA: OX40L coated, biotinylated OX40 titrated (x axis is its concentration in nM), OD 450nm
T2 construct: also called Biotin-OX40
T2 sequence (looked up): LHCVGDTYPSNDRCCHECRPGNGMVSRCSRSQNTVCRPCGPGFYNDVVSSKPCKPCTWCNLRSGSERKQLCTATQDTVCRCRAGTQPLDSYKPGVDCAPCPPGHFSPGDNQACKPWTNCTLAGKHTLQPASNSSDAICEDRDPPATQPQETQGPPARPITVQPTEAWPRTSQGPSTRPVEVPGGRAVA

B1: anti-OX40 antibody HFB10-1E1hG1 (antibody, human IgG1, kappa, V domains shown)
VH: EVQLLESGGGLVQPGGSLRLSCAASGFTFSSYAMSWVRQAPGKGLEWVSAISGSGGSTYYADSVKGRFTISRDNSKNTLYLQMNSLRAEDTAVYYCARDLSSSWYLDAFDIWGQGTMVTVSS
VL: DIQMTQSPSSVSASVGDRVTITCRASQGISSWLAWYQQKPGKAPKLLIYAASSLQSGVPSRFSGSGSGTDFTLTISSLQPEDFATYYCQQANSFPLTFGGGTKLEIKR
- EC50 (MFI of GFP), NF-kb GFP Jurkat reporter cells, cross-linked with anti-human IgG [1]: 2.9 nM
- EC50 of IL-2 secretion, primary CD4+ T cells pre-activated with anti-CD3 and anti-CD28, cross-linked [1]: 0.2 nM

B2: OX40L (trimeric OX40L recombinant protein) (ligand, UniProt P23510 51-183, looked up)
chain: QVSHRYPRIQSIKVQFTEYKKEKGFILTSQKEDEIMKVQNNSVIINCDGFYLISLKGYFSQEVNISLHYQKDEEPLFQLKKVRSVNSLMVASLTYKDKVYLNVTTDNTSLDDFHVNGGELILIHQNPGEFCVL
notes: Bought recombinant protein; also called OX40 ligand
- EC50 (read off the curve) [2]: ~0.5 nM
- EC50 (MFI of GFP), NF-kb GFP Jurkat reporter cells, without cross-linking [1]: 45 nM

From patent publication US20230061604A1 (HIFIBIO HK, published 2023)
